Source: PMC11354668

What was measured:
[1] = test system: ChromPure mouse IgG whole molecule (mouse); test: BLI; conditions: BLI (Octet K2), SAX2.0 sensors loaded with 0.5 uM 5'-biotin DNA, IgG 0.0125-0.2 mg/mL, PBST-B, 30 C, pH not …
staphylococcal protein A = staphylococcal protein A (UniProt P38507); test: BLI; Octet K2; SPA biosensor (sensor type: ProA) with mouse IgG; SPA-IgG run as positive control; the IgG concentrations and times of this kinetic run are not described

| Substance | Kd ([1]; 5'-biotin) | also measured |
| --- | --- | --- |
| CAGTGGCTGA [2KN7] | 1200 nM |  |
| CCCCCCCCCCCCCCC [poly-C15] | 1360 nM |  |
| CGCCTAGGTTGGGTAGGGTGGTGGCG [6GN7] |  | Kd ([1]; 5'-biotin (unmodified in SPA competition)): 241 nM |
| ChromPure mouse IgG whole molecule (antibody) |  | Kd (staphylococcal protein A): 14.9 nM; koff (staphylococcal protein A): 0.000716 s⁻¹; kon (staphylococcal protein A): 48000 M⁻¹ s⁻¹ |
| GCGGCGG [5FGP] | 1510 nM |  |
| GGGGGGGGGG [poly-G10] | 295 nM |  |
| GGGGGGGGGGGGGGG [poly-G15] | 273 nM |  |
| GGGGTGGGTGGTGGGT [7XHD] | 521 nM |  |
| GGGGTTTTGGGG [1OTC] | 414 nM |  |
| GGGGTTTTGGGGT [1PH1-D] | 881 nM |  |
| GGGTCGGTGCCTTA [6CRM] | 1110 nM |  |
| GGTTGGTGTGGTTGG [1RDE] | 1090 nM |  |
| TGGGGTGTGG [2A0I] | 872 nM |  |
| TGTACAATGGG [3UGO] | 793 nM |  |
| TTTTTTTT [7JSI] | 1830 nM |  |
| TTTTTTTTTT [4OU6] | 947 nM |  |
| TTTTTTTTTT [poly-T10] | 1490 nM |  |
| TTTTTTTTTTTT [4JS5] | 1730 nM |  |
| TTTTTTTTTTTTTTT [2CCZ] | 909 nM |  |
| TTTTTTTTTTTTTTT [poly-T15] | 909 nM |  |
| TTTTTTTTTTTTTTTG [2C62] | 3240 nM |  |
| TTTTTTTTTTTTTTTT [6SKO] | 1070 nM |  |
| TTTTTTTTTTTTTTTTT [7JSG] | 1120 nM |  |
| TTTTTTTTTTTTTTTTTTCCCTTTTTTTTTTTTTTTTTTT [5XRZ] | 843 nM |  |
| TTTTTTTTTTTTTTTTTTTT [poly-T20] | 830 nM |  |
| TTTTTTTTTTTTTTTTTTTTTTTTT [4GNX] | 2100 nM |  |
| TTTTTTTTTTTTTTTTTTTTTTTTT [poly-T25] | 1010 nM |  |
| TTTTTTTTTTTTTTTTTTTTTTTTTTTTTT [poly-T30] | 1430 nM |  |
